Measurements: the supplement of paper PMC7877785
± gives the uncertainty stated by the source.

Experiment: self-splicing fitness, log relative to wild type (ln ratio); higher = more splicing; Tetrahymena group I intron in knt gene, E. coli kanamycin selection, DiMSum; sequences stand for … in CUCUCU…GGAGGGAAAAGUUAUCAGGCAUGCACCUGGUAGCUAGUCUUUAAACCAAUAGAUUGCAUCGGUUUAAAAGGCAAGACCGUCAAAUUGCGGGAAAGGGGUCAACAGCCGUUCAGUACCAAGUCUCAGGGGAAACUUUGAGAUGGCCUUGCAAAGGGUAUGGUAAUAAGCUGACGGACAUGGUCCUAACCACGCAGCCAAGUCCUAAGUCAACAGAUCUUCUGUUGAUAUGGAUGCAGUUCACAGACUAAAUGUCGGUCGGGGAAGAUGUAUUCUUCUCAUAAGAUAUAGUCGGACCUCUCCUUAAUGGGAGCUAGCGGAUGAAGUGAUGCAACACUGGAGCCGCUGGGAACUAAUUUGUAUGCGAAAGUAUAUUGAUUAGUUUUGGAGUACUCGUGGUCG
How it was run: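 A randomised library covering all eight P1ex-region intron nucleotides was built with the intron in the knt kanamycin-resistance gene on pET-22b(+) and held in E. coli BL21(DE3). Cells were grown overnight at 37°C or 30°C on LB agar, with or without 25 μg/mL kanamycin, plus 100 μg/mL carbenicillin, 50 μM IPTG and 0.2% rhamnose, and pooled colonies were amplicon-sequenced on an Illumina HiSeq 2500. DiMSum fitness is the error-weighted combination of wild-type-normalised replicate fold changes, kanamycin versus none.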

Sequence | self-splicing fitness (ln) (37 °C) | self-splicing fitness (ln) (30 °C)
AAUUAGCAAUAUUACGAGCC | -1.57 ± 0.47 | –
AGUCAGCAAUAUUACGGGUU | -0.628 ± 0.086 | -0.799 ± 0.077
CCUCAGCAAUAUUACGAGAA | -2.28 ± 0.29 | -3.3 ± 0.41
GCAGAGCAAUAUUACGUCCU | -0.41 ± 0.27 | -3.22 ± 0.42
AUGCAGCAAUAUUACGAGCG | -0.0426 ± 0.084 | -0.487 ± 0.063
GUUUAGCAAUAUUACGCCCU | -0.533 ± 0.11 | -0.651 ± 0.098
CGAUAGCAAUAUUACGAUCU | 0.177 ± 0.12 | -0.235 ± 0.11
AUUGAGCAAUAUUACGAUGA | -2.08 ± 0.35 | –
CCGGAGCAAUAUUACGGUGU | -2.13 ± 0.19 | -3.21 ± 0.16
UCAAAGCAAUAUUACGAGAU | -1.91 ± 0.2 | -4.03 ± 0.33
GGAUAGCAAUAUUACGGUAA | -1.45 ± 0.12 | -2 ± 0.14
CCUAAGCAAUAUUACGACGU | -2.17 ± 0.22 | -3.61 ± 0.29
CCCCAGCAAUAUUACGACAC | -2.41 ± 0.36 | -3.97 ± 0.43
AGCCAGCAAUAUUACGACGU | -0.487 ± 0.085 | -0.356 ± 0.068
CGCUAGCAAUAUUACGUAAC | -2.87 ± 0.38 | -4.07 ± 0.31
CUGAAGCAAUAUUACGCAUA | -2.57 ± 0.32 | -3.91 ± 0.3
ACAAAGCAAUAUUACGAUUG | -1.55 ± 0.092 | -2.14 ± 0.069

Sequence | self-splicing fitness (ln) (37 °C) | self-splicing fitness (ln) (30 °C)
CCCAAGCAAUAUUACGGUCC | -2.65 ± 0.21 | -2.66 ± 0.15
UGAGAGCAAUAUUACGGUGU | -2.36 ± 0.29 | -2.98 ± 0.24
GUGGAGCAAUAUUACGUCAA | -1.78 ± 0.32 | -1.28 ± 0.33
AGGUAGCAAUAUUACGGCAG | -0.539 ± 0.033 | -1.25 ± 0.015
CGCAAGCAAUAUUACGCUGG | -2.09 ± 0.25 | -3.06 ± 0.31
UUUCAGCAAUAUUACGUUAU | -1.47 ± 0.14 | -2.94 ± 0.2
UUCUAGCAAUAUUACGGAUG | -0.888 ± 0.13 | -1.05 ± 0.098
GGCAAGCAAUAUUACGAGGU | -1.27 ± 0.21 | -2.6 ± 0.24
CCCGAGCAAUAUUACGUGAU | -2.22 ± 0.19 | -4.13 ± 0.28
GGCGAGCAAUAUUACGUCGU | -2.3 ± 0.32 | -3.86 ± 0.22
ACUGAGCAAUAUUACGUGUA | -2.5 ± 0.17 | -3.51 ± 0.2
ACGUAGCAAUAUUACGCUUA | -0.764 ± 0.12 | -1.49 ± 0.11
CUAUAGCAAUAUUACGUCGC | – | -3.75 ± 0.24
ACACAGCAAUAUUACGGGCU | -1.11 ± 0.13 | -2.08 ± 0.093
UCCCAGCAAUAUUACGUAGG | -1.08 ± 0.11 | -4.06 ± 0.17
GUAGAGCAAUAUUACGAGUA | -1.69 ± 0.29 | -3.5 ± 0.28
AAAAAGCAAUAUUACGGUUG | -1.58 ± 0.13 | -2.28 ± 0.1
